Experimental data from article PMC4109796.

Molecular target: STAT3 (UniProt P40763)
Assay: co-immunoprecipitation, immunoblot
Settings: reference: wild-type EZH2; sites S21

- binding against the reference: lost
Substance: EZH2 (from UniProt Q15910) EZH2 S21A
